Patent US10215752B2, “Nanotube array for optical detection of protein-protein interactions” (MASSACHUSETTS INSTITUTE OF TECHNOLOGY, priority 2010, dated 2019)

Molecular target: p16 (Homo sapiens, UniProt Q8N726)
Test: Protein-protein interaction on SWNT/CHI array, Förster distance calculation
Conditions: distance change after analyte protein p16, Förster equation
Experimental: Reaction mixtures for cell-free protein expression were added to each array wells. The fluorescent intensities of each SWNT/CHI well were taken to track the intensity changes. To initiate protein synthesis, 1 μl PCR-amplified DNAs were added to each well a humidified chamber at 37° C. for 2 hours. The arrays were washed three times for 10 min each with PBS buffer (pH 7.4, 100 mM) at RT and then PL spectra were taken. To analyze protein-protein interaction on SWNT/XHI array, anti-Histag antibody or cell-free expressed protein mixtures were added to each well and then PL spectra were taken to compare the intensity change.
Near-infrared photoluminescence spectra were acquired using 785 nm excitation and an Acton SP-150 spectrograph coupled to a Princeton instruments OMA V InGaAs detector or with Kaiser Holospec f/1.8 Imaging Spectrograph (Kaiser Optical).

Chain of p16 (Q8N726 with tags, fused parts or gaps): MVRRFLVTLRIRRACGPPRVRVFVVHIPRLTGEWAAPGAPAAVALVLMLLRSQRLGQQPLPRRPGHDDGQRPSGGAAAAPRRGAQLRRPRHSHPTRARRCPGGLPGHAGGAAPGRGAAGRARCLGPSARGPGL

B1: CDK4: human derived protein (ExPASy P11802), on-chip cell-free expressed with His-tag (protein, UniProt P11802 2-303, looked up)
Cyclin-dependent kinase 4: ATSRYEPVAEIGVGAYGTVYKARDPHSGHFVALKSVRVPNGGGGGGGLPISTVREVALLRRLEAFEHPNVVRLMDVCATSRTDREIKVTLVFEHVDQDLRTYLDKAPPPGLPAETIKDLMRQFLRGLDFLHANCIVHRDLKPENILVTSGGTVKLADFGLARIYSYQMALTPVVVTLWYRAPEVLLQSTYATPVDMWSVGCIFAEMFRRKPLFCGNSEADQLGKIFDLIGLPPEDDWPRDVSLPRGAFPPRGPRPVQSVVPEMEESGAQLLLEMLTFNPHKRISAFRALQHSYLHKDEGNPE
modifications: His-tag
**Q.** How did the Δd2 turn out when B1 was run?
**A.** The Δd2 was 0.06338.
